Settings in all cases: Homo sapiens
Substrate in data set [1]: CC(C)C[C@H](N[C@@H](c1ccc(-c2ccc(S(C)(=O)=O)cc2)cc1)C(F)(F)F)C(=O)NCC(N)=O
The data set can be described thus: (§1) Activity of humanized rabbit cathepsin K at 25 uM.

Substrate in data set [2]: CC(C)C[C@H](N[C@@H](c1ccc(-c2ccc(S(C)(=O)=O)cc2)cc1)C(F)(F)F)C(=O)N[C@@H](C)C(N)=O
Described as §1.

Substrate in data set [3]: CSCC[C@H](NC(=O)[C@H](CC(C)C)N[C@@H](c1ccc(-c2ccc(S(C)(=O)=O)cc2)cc1)C(F)(F)F)C(N)=O
The data set is described as §1.

Substrate in data set [4]: Cc1cc(=O)oc2cc(NC(=O)[C@H](CCCN=C(N)N)NC(=O)[C@H](CC(C)C)NC(=O)OCc3ccccc3)ccc12
Described as §1.

Substrate in data set [5]: CC(C)C[C@H](N[C@@H](c1ccc(-c2ccc(S(C)(=O)=O)cc2)cc1)C(F)(F)F)C(=O)NCC(N)=O
The data set can be described thus: (§2) Ratio of Kcat to Km for humanized rabbit cathepsin K. Further details: unit not given here.

Substrate in data set [6]: CC(C)C[C@H](N[C@@H](c1ccc(-c2ccc(S(C)(=O)=O)cc2)cc1)C(F)(F)F)C(=O)N[C@@H](C)C(N)=O
The description is as §2. Further details: unit not given here.

Substrate in data set [7]: CSCC[C@H](NC(=O)[C@H](CC(C)C)N[C@@H](c1ccc(-c2ccc(S(C)(=O)=O)cc2)cc1)C(F)(F)F)C(N)=O
Described as §2. Details: unit not given here.

Substrate in data set [8]: Cc1cc(=O)oc2cc(NC(=O)[C@H](CCCN=C(N)N)NC(=O)[C@H](CC(C)C)NC(=O)OCc3ccccc3)ccc12
Described as §2. Details: unit not given here.

B1: Cathepsin K (Homo sapiens), P43235 (protein)
chain: MWGLKVLLLPVVSFALYPEEILDTHWELWKKTHRKQYNNKVDEISRRLIWEKNLKYISIHNLEASLGVHTYELAMNHLGDMTSEEVVQKMTGLKVPLSHSRSNDTLYIPEWEGRAPDSVDYRKKGYVTPVKNQGQCGSCWAFSSVGALEGQLKKKTGKLLNLSPQNLVDCVSENDGCGGGYMTNAFQYVQKNRGIDSEDAYPYVGQEESCMYNPTGKAAKCRGYREIPEGNEKALKRAVARVGPVSVAIDASLTSFQFYSKGVYYDESCNSDNLNHAVLAVGYGIQKGNKHWIIKNSWGENWGNKGYILMARNKNNACGIANLASFPKM
On to B1, for which the values for the Km in data set [1], in data set [2] and in data set [4] were 0.119 µM, 0.087 µM and 2 µM, respectively. The kcat in data set [1] was determined as 23.2 s⁻¹; in data set [2] it was 23.2 s⁻¹; in data set [3] it was 3.25 s⁻¹; in data set [4] it was 79 s⁻¹. Also, the kcat/Km came out at 0.19 in data set [5], 0.26 in data set [6], 0.54 in data set [7] and 0.04 in data set [8].

The values are drawn from ChEMBL document CHEMBL1140019, “Primary amides as selective inhibitors of cathepsin K” (Bioorg Med Chem Lett, 2007).
